Results: patent publication US11702469B2, “Recombinant EGFL7, EGFL7 antibodies, and uses thereof” (Ohio State Innovation Foundation, priority 2017, dated 2023)

Key:
HEY1 mRNA = HEY1 mRNA qRT-PCR in primary AML blasts; format: cell-based, human; conditions: 100 μg/ml, 2 and 10 h, vs IgG
Procedure: FIG. 26. Blocking EGFL7 increases the NOTCH downstream target, HEY1, in human AML patient blasts (A) Primary blasts from AML patients were cultured in SFEM medium with 10% FBS in the absence or presence of 100 μg/ml of IgG or anti-human EGFL7 antibody for 2 and 10 h. Total RNAs were extracted for qRT-PCR analysis of HEY1 mRNA with β-ACTIN as internal control. *p<0.05, ***p<0.001 vs IgG; ns=not significant.
(§1) Total RNA was extracted using Trizol reagent (Invitrogen, Carlsbad, Calif., USA). cDNA was synthesized using SuperScript III reagents (Invitrogen) according to the manufacturer's instruction. Quantitative Real-Time RT-PCR was performed using commercially available TaqMan Gene Expression Assay primers and the 7900HT Fast Real-Time PCR System (Applied Biosystems, Foster City, Calif., USA). The expression levels of target genes were normalized to β-ACTIN. Relative expression was calculated by using the comparative 2^−ΔΔct method.

[1] = system: CD34+ primary AML patient cells; assay: Cell-trace violet (CTV) membrane-labeling retention, quiescence; format: cell-based, human; conditions: vs unstimulated / IgG1 controls
Description: FIG. 17A-17C. EGFL7 in LSCs. FIG. 17A. qRT-PCR of EGFL7 in LSC-enriched and non-LSC enriched subpopulations of primary AML patient samples normalized to B-ACTIN. Number of quiescent (CTV^MAX) AML cells treated with FIG. 17B. rEGFL7 or control (vs Unstim). FIG. 17C. anti-EGFL7 (Parsatuzumab) antibody or IgG1 control (vs Unstim). *P<0.05.
A morphologically homogenous and functionally static blast population present in the BM and blood of individual AML patients has now evolved into the current perspective of multiple dynamic and heterogeneous cell subpopulations which includes the bulk blast population and the relatively rare leukemia initiating cells (LICs) also referred to as LSCs. Thus, targeting both LSCs and bulk blasts is necessary for complete eradication of the disease. To determine whether EGFL7 has a role in LCS, the LSC-enriched population was first determined within each AML patient sample using long-term colony initiating cell (LTC-IC) assays. […] Next, to determine whether EGFL7 has a role in LSC function, CD34+ cells were isolated and stimulated them with rEGFL7 protein and performed LTC-IC assays. […] To determine whether EGFL7 regulates LSC functions such as cellular quiescence, membrane-labeling retention experiments were performed with cell-trace violet dye (CTV). […]

EOL-1 cells = assay: EOL-1 AML xenograft in NSG mice; conditions: for overall survival: 50 mg/kg intraperitoneal, three times per week, 4 mice per group, vs IgG1 control
Procedure: (FIG. 25A) Overall survival of transplanted NSG mice which were treated with Parsatuzumab or IgG1 control (4 mice per group; dosage 50 mg/kg intraperitoneal injected). […] (FIG. 25B) HES-1 levels were measured after in vivo treatment with Parsatuzumab and IgG1 control, GAPDH was used as loading control.
All studies using animals were carried out in accordance with the OSU institutional guidelines for animal care and under protocols approved by the OSU Institutional Animal Care and Use Committee. All mice used in the experiments were between 8 and 10 weeks of age. Female NOD-scid IL2Rg^null (NSG) mice were transplanted with 10×10^6 EOL-1 cells. Two weeks post-transplant mice were treated with Parsatuzumab or IgG1 control (4 mice per group; dosage 50 mg/kg intraperitoneal), three times per week. Mice were monitored closely for clinical signs of leukemia such as weight loss and hind limb paralysis.
Two-tailed student's t tests were performed using GraphPad Prism version 7 (Graphpad Software, San Diego, Calif.) to analyze in vitro and in vivo experiments unless otherwise noted. P values <0.05 were considered significant. Overall survival for the mouse AML xeonograft model was calculated using the Kaplan-Meier method, and survival curves were compared by the log-rank test.
Briefly, 10×10^6 EOL-1 cells were transplanted into non-conditioned NSG recipient mice. Two weeks post-transplantation, mice were treated with 50 mpk of anti-EGFL7 or IgG1 control antibody three times per week (FIG. 25A).

HES-1 = HES-1 / HES1 RT-PCR in primary AML blasts; format: cell-based, human
Procedure: FIG. 15A-15D. EGFL7 binds and antagonizes NOTCH2 signaling. FIG. 15A. Co-IPs in Kasumi-1 cells using anti-EGFL7 antibody or normal rabbit IgG in Protein G Plus/Protein A agarose beads. Eluate was analyzed by immunoblotting for NOTCH1,-3, and EGFL7. FIG. 15B. Co-IPs with rabbit anti NOTCH1-3 antibody or normal rabbit IgG in Protein G Plus/Protein A agarose beads. FIG. 15C. Immunoblot for cleaved and total NOTCH2 in primary AML blasts stimulated in 0.25 μM rEGFL7. FIG. 15D. RT-PCR on primary AML blasts stimulated with 0.25 μM rEGFL7, *P<0.05.
FIG. 18A-18B. Parsatuzumab decreases blast growth and activation of NOTCH downstream signaling. FIG. 18A. […]
FIG. 23A-23E. […] (FIG. 23B) Total RNA was extracted for quantitative real time (qRT-PCR) analysis of HES1 mRNA with β-ACTIN as internal control. *p<0.05 vs un-stimulated control (Unstim). […] Total RNA was extracted for quantitative real time RT-PCR analysis of HES1 mRNA with β-ACTIN as internal control. *p<0.05, ***p<0.001 vs IgG.
as §1, with “The expression levels of target genes were normalized to β-ACTIN. Relative expression was calculated by using the comparative 2^−ΔΔct method.” left out

B1: Parsatuzumab: Anti-human EGFL7 therapeutic antibody (Parsatuzumab) obtained from Creative Biolabs; blocking monoclonal antibody (antibody, chains of the INN, looked up, V domains shown)
VH: EVQLVESGGGLVQPGGSLRLSCAASGYTFIDYYMNWVRQAPGKGLEWVGDINLDNSGTHYNQKFKGRFTISRDKSKNTAYLQMNSLRAEDTAVYYCAREGVYHDYDDYAMDYWGQGTLVTVSS
VL: DIQMTQSPSSLSASVGDRVTITCRTSQSLVHINAITYLHWYQQKPGKAPKLLIYRVSNRFSGVPSRFSGSGSGTDFTLTISSLQPEDFATYYCGQSTHVPLTFGQGTKVEIK
- HEY1 mRNA (HEY1 mRNA): increases were also observed
- number of quiescent cells (CTV^MAX) [1]: decrease in the number of quiescent AML cells
- overall survival (EOL-1 cells): significant longer overall survival
- overall survival (EOL-1 cells; listed as anti-EGFL7): prolonged survival
- HES1 protein (western blots) after in vivo treatment (EOL-1 cells; 50 mpk three times per week, vs IgG1 controls): increased levels of HES1 protein
- expression of HES1 (HES-1; 100 μg/ml, 2 and 10 hrs post treatment, vs IgG): concomitant increases
- HES-1 mRNA expression (HES-1; 4 and 24 hours after addition, vs IGg1 controls): significant increases in HES-1 expression
